# Assay: yeast display, Sf9 membrane polyspecificity reagent, FACS + sequencing; frameworks hold sequencing errors
# Method in brief: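 Using colony PCR, genes from sorted yeast display clones were amplified, then sequenced on MiSeq at 2 × 250 and filtered by CDR length. The clones had been stained with 10% biotinylated, detergent-solubilized Sf9 membrane reagent for 1 hour at 4 °C and sorted by FACS into low and high (top ~1%) gates on anti-HA and streptavidin fluorescence. Polyreactivity labels come from the gate of origin.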
row,Sequence,polyreactivity (PSR sort gate)
1,QVQLVESGGGLVQAGGSLRLSCAASGSTFGANAMGWYRQAPGKEREFVAAISSGGRTNYADSVKGRFTISRDNAKNTVYLQMNSLKPEDTAVYYCAASFRRWYFYARHEYGYWGQGTQVTVSS,low polyreactivity
2,QVQLVESGGGLVQAGGSLRLSCAASGSTFGANAMGWYRQAPGKERELVAAITRGVRTHYADSVKGRFTISRDNAKNTVYLQMNSLKPEDTAVYYCNARSYPRWLRYDYWGQGTQVTVSS,low polyreactivity
3,QVQLVESGGGLVQAGGSLRLSCAASGSTFGANSMGWYRQAPGKERELVAAITYSSGSTRYADSVKGRFTISRDNAKTTVYLQMNILKPEDTAVYYCAARRTNYFKLGYWGQGTQVTVSS,high polyreactivity
4,QVQLVESGGGLVQAGGSLRLSCAASGSTFGDYAMGWYRQAPGKERELVAAISARGASTYYADSVKGRFTISRDNAKNTVYLQMNSLKPEDTAVYYCAARYVSSGRRFDYCGQGTQVTVSS,high polyreactivity
5,QVQLVESGGGLVQAGGSLRLSCAASGSTFGFNAMGWYRQAPGKERELLPLFWSGGSTYYADSVKGRFTISRDNAKNTVYLQMYSLKPEDTAVYYCNKDSPPITRYDYWGQGTQVTVSS,low polyreactivity
6,QVQLVESGGGLVQAGGSLRLSCAASGSTFGFYAMGWYRQAPGKERELVAAISRGGSTNYADSVKGRFTISRDNAKNTVYLQMNSLKPEDTAVYYCAKAYHATSDYWGQGTQVTVSS,low polyreactivity
7,QVQLVESGGGLVQAGGSLRLSCAASGSTFGFYAMGWYRQAPGKERELVAAISSAARTYYADSVKGRFTISRDNAKNTVYLQMNSLKPEDTAVYYCSAEAYHWTSYIGYGGVYYWGQGTQVTVSS,low polyreactivity
8,QVQLVESGGGLVQAGGSLRLSCAASGSTFGFYTMGWYRQAPGKERELVAAISRGGGRTYYADSVKGRFTISRDNAKNTVYLQMNSLKPEDTAVYYCAARSTQGRFEYWGQGTQVTVSS,high polyreactivity
9,QVQLVESGGGLVQAGGSLRLSCAASGSTFGGNAMGWYRQAPGKERELVAAIDSGGSTYADSVKGRFTISRDNAKNTVYFQMNSLKPEDTAVYYCAAVWEFVHYWRFDYWGQGTQVTVSS,low polyreactivity
10,QVQLVESGGGLVQAGGSLRLSCAASGSTFGGNAMGWYRQAPGKERELVAAITIGGRTNYADSVKGRFTISRDYAKNTVYLQMNSLKPEDTAVYYCAKDRDQWQDYWGQGTQVTVSS,low polyreactivity
11,QVQLVESGGGLVQAGGSLRLSCAASGSTFGGNAMGWYRQAPGKERELVASISSSGGRTYYADSVKGRFTISRDNAKNTVYLQMNSLKPEDTAVYYCAAKAWYPRVGFLRGGYWGQGTQVTVSS,high polyreactivity
12,QVQLVESGGGLVQAGGSLRLSCAASGSTFGGYAMGWYRPAPGKERELVAAISGGGRTYYADSVKGRFTISRDNAKNTVYLQMNSLKPADTAVYYCNAGYWFGYRLFTGYYWGQGTQVTVSS,low polyreactivity
13,QVQLVESGGGLVQAGGSLRLSCAASGSTFGGYAMGWYRQAPGKERELVAAISSSGGITYYADSVKGRFTISRDNAKNTVYLQMNSLKPEDTAVYYCAAPLGGGARWGRWWLYDSWGQGTQVTVSS,low polyreactivity
14,QVQLVESGGGLVQAGGSLRLSCAASGSTFGGYAMGWYRQAPGKERELVAAITSRGGSTYYADSVKGRFTISRDNAKNTVYLQMNSLKPEDTAVYYCATGLPKRDRRARIRYEYWGQGTQVTVSS,low polyreactivity
15,QVQLVESGGGLVQAGGSLRLSCAASGSTFGGYSMGWYRQAPGKERELVAAITYSGGSTYYADSVKGRFTISGDIAQNTVYLQMKSLKPEDTAFYYCNADDDDALPWWWPYVLDVDYWGQGTQVTVSS,low polyreactivity
16,QVQLVESGGGLVQAGGSLRLSCAASGSTFGGYVMGWYRQAPGKERELVAAISGNGASTTYADSVKGRFTISRDNAKSTFYLQLNSVKPEDTAVYYCGAMYRKAHSDYDYWGQGTQVTVSS,low polyreactivity

# From the nanobody polyreactivity screen of Harvey et al. (2022)
